For assay [1], the target named is p62 ZZ domain (aa 115-190) (human, UniProt Q13501 115-190). Description: MST.
Assay [2] has as its target p62 ZZ domain (aa 120-171) (human, UniProt Q13501 120-171).

B1: REEE peptide (peptide)
peptide: REEE
As a reminder, the Kd is the constant that tells how readily two partners part at equilibrium. On to B1, for which the results for the Kd in assay [1] and in assay [2] were 1.9 µM and 5.6 µM, respectively.

B2: RAEE peptide (peptide)
peptide: RAEE
For B2, the Kd in assay [1] is 3.2 µM; in assay [2], 14 µM.

The values are drawn from PMC6197226 (2018).
